# Source: patent publication US20130171217A1, “ENZYMATIC PERACID GENERATION FOR USE IN SKIN CARE PRODUCTS” (E I DU PONT DE NEMOURS AND COMPANY, priority 2010, published 2013)
# B1: SEQ ID NO: 331: L29P variant of the hydrolase from Pseudomonas fluorescens fused to hair binding domain HC263 via a flexible linker (protein)
# chain: MSTFVAKDGTQIYFKDWGSGKPVLFSHGWPLDADMWEYQMEYLSSRGYRTIAFDRRGFGRSDQPWTGNDYDTFADDIAQLIEHLDLKEVTLVGFSMGGGDVARYIARHGSARVAGLVLLGAVTPLFGQKPDYPQGVPLDVFARFKTELLKDRAQFISDFNAPFYGINKGQVVSQGVQTQTLQIALLASLKATVDCVTAFAETDFRPDMAKIDVPTLVIHGDGDQIVPFETTGKVAAELIKGAELKVYKDAPHGFAVTHAQQLNEDLLAFLKRGPGSGGAGSPGSAGGPGSPSAQSQLPDKHSGLHERAPQRYGPEPEPEPEPIPEPPKEAPVVIEKPKPKPKPKPKPPAHDHKNQKETHQRHAAGSGGGGSPHHHHHH
# B2: SEQ ID NO: 333: L29P variant of Pseudomonas fluorescens hydrolase fused to hair binding domain HC263KtoR via a flexible linker (protein)
# chain: MSTFVAKDGTQIYFKDWGSGKPVLFSHGWPLDADMWEYQMEYLSSRGYRTIAFDRRGFGRSDQPWTGNDYDTFADDIAQLIEHLDLKEVTLVGFSMGGGDVARYIARHGSARVAGLVLLGAVTPLFGQKPDYPQGVPLDVFARFKTELLKDRAQFISDFNAPFYGINKGQVVSQGVQTQTLQIALLASLKATVDCVTAFAETDFRPDMAKIDVPTLVIHGDGDQIVPFETTGKVAAELIKGAELKVYKDAPHGFAVTHAQQLNEDLLAFLKRGPGSGGAGSPGSAGGPGSPSAQSQLPDRHSGLHERAPQRYGPEPEPEPEPIPEPPREAPVVIERPRPRPRPRPRPPAHDHRNQRETHQRHAAGSGGGGSPHHHHHH
# B3: SEQ ID NO: 335: L29P variant of Pseudomonas fluorescens hydrolase fused to hair binding domain HC1010 via a flexible linker (protein)
# chain: MSTFVAKDGTQIYFKDWGSGKPVLFSHGWPLDADMWEYQMEYLSSRGYRTIAFDRRGFGRSDQPWTGNDYDTFADDIAQLIEHLDLKEVTLVGFSMGGGDVARYIARHGSARVAGLVLLGAVTPLFGQKPDYPQGVPLDVFARFKTELLKDRAQFISDFNAPFYGINKGQVVSQGVQTQTLQIALLASLKATVDCVTAFAETDFRPDMAKIDVPTLVIHGDGDQIVPFETTGKVAAELIKGAELKVYKDAPHGFAVTHAQQLNEDLLAFLKRGPGSGGAGSPGSAGGPGSAQSQLPDKHSGLHERAPQRYGSGTAEIQSSKNPNPHPQRSWTNGSGHNHMQERYTDPQHSPSVNGLGSGHDHKNQKETHQRHAASSHHHHHH
# B4: SEQ ID NO: 337: L29P variant of Pseudomonas fluorescens hydrolase fused to the charged peptide (GK)5-His6 via a flexible linker (protein)
# chain: MSTFVAKDGTQIYFKDWGSGKPVLFSHGWPLDADMWEYQMEYLSSRGYRTIAFDRRGFGRSDQPWTGNDYDTFADDIAQLIEHLDLKEVTLVGFSMGGGDVARYIARHGSARVAGLVLLGAVTPLFGQKPDYPQGVPLDVFARFKTELLKDRAQFISDFNAPFYGINKGQVVSQGVQTQTLQIALLASLKATVDCVTAFAETDFRPDMAKIDVPTLVIHGDGDQIVPFETTGKVAAELIKGAELKVYKDAPHGFAVTHAQQLNEDLLAFLKRGPGSGGAGSPGSAGGPGSGKGKGKGKGKHHHHHH
# B5: SEQ ID NO: 325: S54V variant of Mycobacterium smegmatis aryl esterase fused to hair binding domain HC263KtoR via a flexible linker (protein)
# chain: MAKRILCFGDSLTWGWVPVEDGAPTERFAPDVRWTGVLAQQLGADFEVIEEGLVARTTNIDDPTDPRLNGASYLPSCLATHLPLDLVIIMLGTNDTKAYFRRTPLDIALGMSVLVTQVLTSAGGVGTTYPAPKVLVVSPPPLAPMPHPWFQLIFEGGEQKTTELARVYSALASFMKVPFFDAGSVISTDGVDGIHFTEANNRDLGVALAEQVRSLLGPGSGGAGSPGSAGGPGSPSAQSQLPDRHSGLHERAPQRYGPEPEPEPEPIPEPPREAPVVIERPRPRPRPRPRPPAHDHRNQRETHQRHAAGSGGGGSPHHHHHH
# B6: SEQ ID NO: 321: acetyl xylan esterase from Mesorhizobium loti fused at its C-terminus to hair binding domain HC263 via a flexible linker (protein)
# chain: MPFPDLIQPELGAYVSSVGMPDDFAQFWTSTIAEARQAGGEVSIVQAQTTLKAVQSFDVTFPGYGGHPIKGWLILPTHHKGRLPLVVQYIGYGGGRGLAHEQLHWAASGFAYFRMDTRGQGSDWSVGETADPVGSTSSIPGFMTRGVLDKNDYYYRRLFTDAVRAIDALLGLDFVDPERIAVCGDSQGGGISLAVGGIDPRVKAVMPDVPFLCDFPRAVQTAVRDPYLEIVRFLAQHREKKAAVFETLNYFDCVNFARRSKAPALFSVALMDEVCPPSTVYGAFNAYAGEKTITEYEFNNHEGGQGYQERQQMTWLSRLFGVGGPGSGGAGSPGSAGGPGSPSAQSQLPDKHSGLHERAPQRYGPEPEPEPEPIPEPPKEAPVVIEKPKPKPKPKPKPPAHDHKNQKETHQRHAAGSGGGGSPHHHHHH
# B7: SEQ ID NO: 329: S54V variant of Mycobacterium smegmatis aryl esterase fused to the charged peptide (GK)5-His6 via a flexible linker (protein)
# chain: MAKRILCFGDSLTWGWVPVEDGAPTERFAPDVRWTGVLAQQLGADFEVIEEGLVARTTNIDDPTDPRLNGASYLPSCLATHLPLDLVIIMLGTNDTKAYFRRTPLDIALGMSVLVTQVLTSAGGVGTTYPAPKVLVVSPPPLAPMPHPWFQLIFEGGEQKTTELARVYSALASFMKVPFFDAGSVISTDGVDGIHFTEANNRDLGVALAEQVRSLLGPGSGGAGSPGSAGGPGSGKGKGKGKGKHHHHHH
# B8: SEQ ID NO: 327: S54V variant of Mycobacterium smegmatis aryl esterase fused to hair binding domain HC1010 via a flexible linker (protein)
# chain: MAKRILCFGDSLTWGWVPVEDGAPTERFAPDVRWTGVLAQQLGADFEVIEEGLVARTTNIDDPTDPRLNGASYLPSCLATHLPLDLVIIMLGTNDTKAYFRRTPLDIALGMSVLVTQVLTSAGGVGTTYPAPKVLVVSPPPLAPMPHPWFQLIFEGGEQKTTELARVYSALASFMKVPFFDAGSVISTDGVDGIHFTEANNRDLGVALAEQVRSLLGPGSGGAGSPGSAGGPGSAQSQLPDKHSGLHERAPQRYGSGTAEIQSSKNPNPHPQRSWTNGSGHNHMQERYTDPQHSPSVNGLGSGHDHKNQKETHQRHAASSHHHHHH
# B9: SEQ ID NO: 317: acetyl xylan esterase from Bacillus pumilus fused at its C-terminus to hair binding domain HC263 via a flexible linker (protein)
# chain: MQLFDLSLEELKKYKPKKTARPDFSDFWKKSLEELRQVEAEPTLESYDYPVKGVKVYRLTYQSFGHSKIEGFYAVPDQTGPHPALVRFHGYNASYDGGIHDIVNWALHGYATFGMLVRGQGGSEDTSVTPGGHALGWMTKGILSKDTYYYRGVYLDAVRALEVIQSFPEVDEHRIGVIGGSQGGALAIAAAALSDIPKVVVADYPYLSNFERAVDVALEQPYLEINSYFRRNSDPKVEEKAFETLSYFDLINLAGWVKQPTLMAIGLIDKITPPSTVFAAYNHLETDKDLKVYRYFGHEFIPAFQTEKLSFLQKHLLLSTGPGSGGAGSPGSAGGPGSPSAQSQLPDKHSGLHERAPQRYGPEPEPEPEPIPEPPKEAPVVIEKPKPKPKPKPKPPAHDHKNQKETHQRHAAGSGGGGSPHHHHHH
# B10: SEQ ID NO: 319: acetyl xylan esterase from Lactococcus lactis fused at its C-terminus to hair binding domain HC263 via a flexible linker (protein)
# chain: MTKINNWQDYQGSSLKPEDFDKFWDEKINLVSNHQFEFELIEKNLSSKVVNFYHLWFTAIDGAKIHAQLIVPKNLKEKYPAILQFHGYHCDSGDWVDKIGIVAEGNVVLALDCRGQGGLSQDNIQTMGMTMKGLIVRGIDEGYENLYYVRQFMDLITATKILSEFDFVDETNISAQGASQGGALAVACAALSPLIKKVTATYPFLSDYRKAYELGAEESAFEELPYWFQFKDPLHLREDWFFNQLEYIDIQNLAPRIKAEVIWILGGKDTVVPPITQMAAYNKIQSKKSLYVLPEYGHEYLPKISDWLRENQGPGSGGAGSPGSAGGPGSPSAQSQLPDKHSGLHERAPQRYGPEPEPEPEPIPEPPKEAPVVIEKPKPKPKPKPKPPAHDHKNQKETHQRHAAGSGGGGSPHHHHHH
# Assay: Perhydrolase activity of targeted hydrolases, ABTS assay
# Format: biochemical
# Details: 1 m Na acetate at pH 5.5 instead of triacetin
# Description: The ABTS assay was performed as follows: hair samples treated as described above were transferred to new 2-mL microcentrifuge tubes (Eppendorf Protein LoBind; Eppendorf North America, Hauppauge, N.Y.) To each tube was added 480 μL of PAH buffer ([…]), 14 μL of 39% hydrogen peroxide (Sigma 3410), and 6 μL triacetin (Sigma-Aldrich W200700). The perhydrolase reaction was allowed to proceed for 10 minutes at room temperature (˜22-25° C.). The reaction was stopped by diluting aliquots 10×, 100× and 1000× with 10 mM phosphoric acid. For detection 50 μL of 1 M acetic acid, 50 μL of 40 mg/mL potassium iodide, and 50 μL of 4 mM ABTS (2,2′-azino-bis(3-ethylbenzthiazoline-6-sulphonic acid; Sigma, St Louis, Mo.) were added to 50 μL of the above dilutions. Color was allowed to develop for 10 minutes and read in a spectrophotometer at 405 nm. Values from no-enzyme controls were subtracted to yield values attributable only to enzyme activity. A standard curve of OD 405 nm vs PAA concentration in ppm yielded a conversion factor of 8.75, such that an OD 405 nm of 1.0 corresponded to approximately 8.75 ppm PAA. This value was then multiplied by the appropriate dilution to arrive at the PAA concentration in the perhydrolase reaction.
# The perhydrolase activity of the enzymes targeted to hair with a variety of targeting domains produced as described in Example 32 was measured with the ABTS assay.
row,Molecule,Specific perhydrolase activity
1,B1,0.37 µmol/mg/min
2,B2,1.45 µmol/mg/min
3,B3,1.5 µmol/mg/min
4,B4,2.65 µmol/mg/min

# Same assay, conditions: triacetin at pH 7.5
row,Molecule,Specific perhydrolase activity
1,B5,46 µmol/mg/min
2,B6,34 µmol/mg/min
3,B7,264 µmol/mg/min
4,B8,20 µmol/mg/min
5,B9,40 µmol/mg/min
6,B10,99 µmol/mg/min
